Test results as given in patent US20120316071A1 (published 2012).
Changes are numbered by the printed parent chain. Names and notes keep the numbering of the source.

Columns and labels:
[1] = target: T1, rHuman Erythropoietin R/Fc Chimera, CF (R&D Systems Cat#963-ER) (human, UniProt P19235 25-250); assay: ECL multispot (MSD) assay, antigen spotted on plate, Fab at 0.01 µM
T1 construct: Bought recombinant protein; also called EPO R; EPO R/Fc; Fc part of the bought chimera not given
T1 sequence (looked up): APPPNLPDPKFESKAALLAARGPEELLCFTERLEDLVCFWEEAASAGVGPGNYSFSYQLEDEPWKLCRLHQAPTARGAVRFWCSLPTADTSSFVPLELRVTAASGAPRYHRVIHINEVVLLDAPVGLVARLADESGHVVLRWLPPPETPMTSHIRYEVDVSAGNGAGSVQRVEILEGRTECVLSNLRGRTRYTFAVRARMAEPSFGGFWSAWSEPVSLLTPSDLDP

[2] = target: T2, Recombinant Human DLL4 (R&D Systems Cat#1506-D4/CF) (human, UniProt Q9NR61 27-524); assay: as above
T2 construct: Bought recombinant protein; also called delta-like protein 4; rHuman DLL4

[3] = target: T3, rHuman ErbB2/Fc Chimera, CF (R&D Systems Cat#1129-ER) (human, UniProt P04626 23-652); assay: as above
T3 construct: Bought recombinant protein; also called human epidermal growth factor 2 receptor; Fc part of the bought chimera not given

[4] = target: T4, rHuman EGF R/Fc Chimera, CF (R&D Systems Cat#344-ER) (human, UniProt P00533 25-645); assay: as above
T4 construct: Bought recombinant protein; also called epidermal growth factor receptor; Fc part of the bought chimera not given

[5] = target: T5, rHuman HGF R/c-MET/Fc Chimera, CF (R&D Systems Cat#358-MT/CF) (human, UniProt P08581 25-932); assay: as above
T5 construct: Bought recombinant protein; also called HGF R/Fc; hepatocyte growth factor receptor; Fc part of the bought chimera not given
T5 sequence (P08581 25-932, change not shown): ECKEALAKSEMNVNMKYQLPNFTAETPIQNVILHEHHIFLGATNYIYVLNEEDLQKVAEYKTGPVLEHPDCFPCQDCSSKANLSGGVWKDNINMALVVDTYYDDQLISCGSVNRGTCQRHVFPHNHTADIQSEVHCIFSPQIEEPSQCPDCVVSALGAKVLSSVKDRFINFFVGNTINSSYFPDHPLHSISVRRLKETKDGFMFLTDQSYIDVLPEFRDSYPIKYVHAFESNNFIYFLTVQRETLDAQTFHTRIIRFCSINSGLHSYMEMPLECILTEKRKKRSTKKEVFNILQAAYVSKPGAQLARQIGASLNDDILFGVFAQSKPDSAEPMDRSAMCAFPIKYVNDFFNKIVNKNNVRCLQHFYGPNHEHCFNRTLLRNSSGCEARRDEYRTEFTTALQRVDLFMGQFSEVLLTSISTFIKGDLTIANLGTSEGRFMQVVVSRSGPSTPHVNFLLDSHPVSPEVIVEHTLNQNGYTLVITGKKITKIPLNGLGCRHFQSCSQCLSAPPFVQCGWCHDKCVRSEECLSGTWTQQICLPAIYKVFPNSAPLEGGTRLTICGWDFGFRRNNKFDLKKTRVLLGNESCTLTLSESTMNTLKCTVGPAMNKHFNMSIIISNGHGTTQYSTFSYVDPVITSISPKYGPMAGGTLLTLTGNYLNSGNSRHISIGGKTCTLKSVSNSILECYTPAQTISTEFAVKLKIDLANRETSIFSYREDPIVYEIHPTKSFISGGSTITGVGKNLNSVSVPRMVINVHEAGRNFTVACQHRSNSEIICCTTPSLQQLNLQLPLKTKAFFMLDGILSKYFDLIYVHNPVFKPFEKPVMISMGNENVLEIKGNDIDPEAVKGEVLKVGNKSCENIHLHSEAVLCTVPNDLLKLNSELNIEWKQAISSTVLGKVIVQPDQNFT

[6] = target: T6, rHuman Notch-1/Fc Chimera, CF (R&D Systems Cat#3647-TK) (human, UniProt P46531 19-526); assay: as above
T6 construct: Bought recombinant protein; Fc part of the bought chimera not given

[7] = target: T7, rHuman CD44/Fc Chimera, CF (R&D Systems Cat#3660-CD) (human, UniProt P16070 21-220); assay: as above
T7 construct: Bought recombinant protein; Fc part of the bought chimera not given

[8] = target: T8, rHuman IGF-1 sR, CF (R&D Systems Cat#391-GR) (human, UniProt P08069 31-932); assay: as above
T8 construct: Bought recombinant soluble receptor; also called insulin-like growth factor-1 soluble receptor

[9] = target: T9, rHuman P-Cadherin/Fc Chimera, CF (R&D Systems Cat#861-PC) (human, UniProt P22223 108-654); assay: as above
T9 construct: Bought recombinant protein; Fc part of the bought chimera not given

[10] = target: T10, rHuman HGF R/c-MET/Fc Chimera (human, UniProt P08581 25-932); assay: ECL multispot (MSD) binding assay; antigen spotted on plate, Fab in solution;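 further: purified Fab bound for 1 h at 20 °C, detected with a TAG-labelled antibody, electrochemiluminescence compared with each well's blank, signal-to-blank ratio of at least 4 scored as hit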
T10 construct: also called HGF R/Fc
T10 sequence (P08581 25-932, change not shown): as above

[11] = target: T11, rHuman Notch-1/Fc Chimera (human, UniProt P46531 19-526); assay: as above
T11 construct: Bought from R&D Systems (Cat#3647-TK)

rHuman CD44/Fc Chimera = rHuman CD44/Fc Chimera (human, UniProt P16070 21-220); assay: as above
[12] = target: rHuman IGF-1 sR (insulin-like growth factor-1 soluble receptor) (human, UniProt P08069 31-932); assay: as above
[13] = target: T12, rHuman P-Cadherin/Fc Chimera (human, UniProt P22223 108-654); assay: as above
T12 construct: Bought from R&D Systems (Cat#861-PC)

[14] = target: T13, rHuman Erythropoietin R/Fc Chimera (human, UniProt P19235 25-250); assay: as above
T13 construct: also called EPO R; EPO R/Fc
T13 sequence (looked up): T1 sequence (looked up)

[15] = target: T14, Recombinant Human DLL4 (delta-like protein 4) (human, UniProt Q9NR61 27-529); assay: as above
T14 construct: Bought from R&D Systems (Cat#1506-D4/CF); also called rHuman DLL4

rHuman ErbB2/Fc Chimera = rHuman ErbB2/Fc Chimera (human, UniProt P04626 23-652); assay: as above
rHuman EGF R/Fc Chimera = rHuman EGF R/Fc Chimera (human, UniProt P00533 25-645); assay: as above
[16] = target: T15, Recombinant Human DLL4 (R&D Systems Cat#1506-D4/CF) (human, UniProt Q9NR61 27-524); assay: ECL multispot (MSD) binding assay; DLL4 signal over blank spot
T15 construct: Bought recombinant protein; also called delta-like protein 4; rHuman DLL4

[17] = target: T15, Recombinant Human DLL4 (R&D Systems …); assay: ECL multispot (MSD) binding assay; DLL4 spotted on the plate, purified Fab added
[18] = target: T16, Recombinant Human DLL4 (delta-like protein 4) (human, UniProt Q9NR61 27-524); assay: ECL Multispot (MSD) binding assay, DLL4 spotted on plate, 10 nM Fab; ECL signal over blank spot
T16 construct: Bought recombinant protein (R&D Systems Cat#1506-D4/CF), spotted on the MSD plate; also called rHuman DLL4; Delta-like 4

[19] = target: T17, rHuman IGF-1 sR, (IGF-1 sR), CF (R&D Systems Cat#391-GR) (human, UniProt P08069 31-932); assay: ECL multispot (MSD), antigen spotted, 10 nM Fab; blank spot of this row 271
T17 construct: Bought recombinant soluble receptor; also called insulin-like growth factor-1 soluble receptor

[20] = target: T18, rHuman P-Cadherin/Fc Chimera, CF (R&D Systems Cat#861-PC) (human, UniProt P22223 108-654); assay: as above
T18 construct: Bought recombinant protein; Fc part of the bought chimera not given

[21] = target: T19, rHuman Erythropoietin R/Fc Chimera, CF (R&D Systems Cat#963-ER) (human, UniProt P19235 25-250); assay: as above
T19 construct: Bought recombinant protein; also called EPO R; EPO R/Fc; Fc part of the bought chimera not given
T19 sequence (looked up): T1 sequence (looked up)

[22] = target: T20, rHuman ErbB2/Fc Chimera, CF (R&D Systems Cat#1129-ER) (human, UniProt P04626 23-652); assay: as above
T20 construct: Bought recombinant protein; also called human epidermal growth factor 2 receptor; Fc part of the bought chimera not given

[23] = target: T21, rHuman EGF R/Fc Chimera, CF (R&D Systems Cat#344-ER) (human, UniProt P00533 25-645); assay: as above
T21 construct: Bought recombinant protein; also called epidermal growth factor receptor; Fc part of the bought chimera not given

[24] = target: T22, rHuman Notch-1/Fc Chimera, CF (R&D Systems Cat#3647-TK) (human, UniProt P46531 19-526); assay: as above
T22 construct: Bought recombinant protein; Fc part of the bought chimera not given

[25] = target: T23, rHuman CD44/Fc Chimera, CF (R&D Systems Cat#3660-CD) (human, UniProt P16070 21-220); assay: as above
T23 construct: Bought recombinant protein; Fc part of the bought chimera not given

[26] = target: T24, Recombinant Human DLL4 (delta-like protein 4) (human, UniProt Q9NR61 27-524); assay: ECL Multispot (MSD) binding assay, DLL4 spotted on plate, 10 nM Fab
T24 construct: Bought recombinant protein (R&D Systems Cat#1506-D4/CF); also called rHuman DLL4; Delta-like 4

[27] = target: T25, rHuman ErbB2/Fc Chimera, CF (R&D Systems Cat#1129-ER) (human, UniProt P04626 23-652); assay: Multispot ECL (MSD) binding screen, antigen spotted on plate; hit = signal/blank >= 4
T25 construct: Bought Fc chimera; also called human epidermal growth factor 2 receptor; Fc part of the bought chimera not given

B1: Fab VH1-46_IGHD6-6*01_IGHJ1*01 & L6_IGKJ1*01 (Fab, V domains shown)
VH: QVQLVQSGAEVKKPGASVKVSCKASGYTFTSYYMHWVRQAPGQGLEWMGIINPSGGSTSYAQKFQGRVTMTRDTSTSTVYMELSSLRSEDTAVYYCAREEYSSSSAEYFQHWGQGTLVTVSS
VL: not shown
notes: Tested as a Fab expressed in E. coli; The heavy chain variable region was cloned into Plasmid A (CH1, His6 and Flag tags) and the kappa light chain variable region into Plasmid C (kappa CL); also called Parent; parental
For B1, the ECL signal/noise ratio [1] was 1, the ECL signal/noise ratio [2] was 4.9 and the ECL signal/noise ratio [3] was 1. For the same binder, the ECL signal/noise ratio [4] was 0.9, the ECL signal/noise ratio [5] was 0.9 and the ECL signal/noise ratio [6] was 0.5. The ECL signal/noise ratio [7] was 1.1, the ECL signal/noise ratio [8] was 0.8 and the ECL signal/noise ratio [9] was 1.

B2: Fab VH1-46_IGHD6-6*01_IGHJ1*01 S102A/S103P/S104F/H111F (APFF) & L6_IGKJ1*01 S92C (Fab, V domains shown)
VH: B1 VH with S102A, S103P, S104F, H111F
VL: EIVLTQSPATLSLSPGERATLSCRASQSVSSYLAWYQQKPGQAPRLLIYDASNRATGIPARFSGSGSGTDFTLTISSLEPEDFAVYYCQQRCNWPPWTFGQGTKVEIKR
notes: Tested as Fab made in E. coli: VH cloned into Plasmid A (CH1, His6 and Flag tags), kappa VL into Plasmid C (kappa CL); also called APFF / S92C
B2 gave an ECL signal [10] of 589, an ECL signal [11] of 642 and an ECL signal (rHuman CD44/Fc Chimera) of 554. The ECL signal [12] was 642, the ECL signal [13] was 805 and the ECL signal [14] was 742. It also gave an ECL signal [15] of 1230, an ECL signal (rHuman ErbB2/Fc Chimera) of 526 and an ECL signal (rHuman EGF R/Fc Chimera) of 588.

B3: Fab VH1-46_IGHD6-6*01_IGHJ1*01 S102A/S103P/S104F/H111F (APFF) & L6_IGKJ1*01 (Fab, V domains shown)
VH: B1 VH with S102A, S103P, S104F, H111F
VL: not shown
notes: Tested as an E. coli-expressed Fab; also called H:APFF & L:wt; APFF parent
With B3 the Signal/Blank [16] was 611 ratio and the “ECL signal” value [17] was 189000 ECL counts.

B4: Fab VH1-46_IGHD6-6*01_IGHJ1*01 S102A/S103P/S104F/H111F (APFF) & L6_IGKJ1*01 S92G (Fab, V domains shown)
VH: B1 VH with S102A, S103P, S104F, H111F
VL: B2 VL with C92G
notes: Fab with CH1 (His6 and Flag tags) and kappa CL from the expression vectors; also called APFF & S92G
B4 was tested, and the Signal/Blank [16] was 281 ratio and the “ECL signal” value [17] was 91400 ECL counts.

B5: Fab VH1-46_IGHD6-6*01_IGHJ1*01 S102A/S103P/S104F H111S & L6_IGKJ1*01 (Fab, V domains shown)
VH: B1 VH with S102A, S103P, S104F, H111S
VL: not shown
notes: Fab format is as for m1 (CH1 with His6/Flag from Plasmid A, kappa CL from Plasmid C); also called APF H111S
With B5 the Signal/Noise [18] was 24.

B6: Fab VH1-46_IGHD6-6*01_IGHJ1*01 S102A/S103P/S104F G55W & L6_IGKJ1*01 (Fab, V domains shown)
VH: B1 VH with G55W, S102A, S103P, S104F
VL: not shown
notes: Tested as Fab (CH1 with His6 and Flag tags, kappa CL); also called APF G55W
B6 gave an ECL signal [19] of 250, an ECL signal [20] of 391 and an ECL signal [21] of 296. The ECL signal [22] was 334, the ECL signal [23] was 312 and the ECL signal [24] was 327. It also gave an ECL signal [25] of 159.

B7: Fab VH1-46_IGHD6-6*01_IGHJ1*01 S102A/S103P/S104F/H111F (APFF) & L6_IGKJ1*01 (Fab, V domains shown)
VH: B1 VH with S102A, S103P, S104F, H111F
VL: not shown
notes: Tested as Fab (CH1 with His6/Flag tags from Plasmid A; kappa CL from Plasmid C); also called APFF / parent; H:APFF & L:wt
B7 showed an ECL signal [10] of 185, an ECL signal [12] of 336 and an ECL signal [13] of 295. For the same binder, the ECL signal [15] was 189000, the ECL signal (rHuman ErbB2/Fc Chimera) was 289 and the ECL signal (rHuman EGF R/Fc Chimera) was 326.

B8: Fab VH1-46_IGHD6-6*01_IGHJ1*01 S102A/S103P/S104F A106E & L6_IGKJ1*01 (Fab, V domains shown)
VH: B1 VH with S102A, S103P, S104F, A106E
VL: not shown
notes: Tested as Fab; also called APF A106E
B8 showed a Signal/Noise [26] of 4.3.

B9: Fab VH1-46_IGHD6-6*01_IGHJ1*01 S102A/S103P/S104F/H111F & L6_IGKJ1*01 (Fab, V domains shown)
VH: B1 VH with S102A, S103P, S104F, H111F
VL: not shown
notes: Fab format is as for m1 (CH1 with His6/Flag from Plasmid A, kappa CL from Plasmid C); also called APFF; H:APFF & L:wt
Binder B9 has a Signal/Noise [18] of 42.5.

B10: Fab VH1-46_IGHD6-6*01_IGHJ1*01 S102A/S103P/S104F G55W & L6_IGKJ1*01 (Fab, V domains shown)
VH: B1 VH with G55W, S102A, S103P, S104F
VL: not shown
notes: Tested as Fab; also called APF G55W
For B10, the Signal/Noise [26] was 8.

B11: Fab VH2-5_IGHD7-27*01_IGHJ2*01 & L2_IGKJ1*01 (Fab, V domains shown)
VH: QITLKESGPTLVKPTQTLTLTCTFSGFSLSTSGVGVGWIRQPPGKALEWLALIYWNDDKRYSPSLKSRLTITKDTSKNQVVLTMTNMDPVDTATYYCAHRPNWGYWYFDLWGRGTLVTVSS
VL: not shown
B11: binds [27].

B12: Fab VH1-69_IGHD1-1*01_IGHJ6*01 & A17_IGKJ1*01 (Fab, V domains shown)
VH: QVQLVQSGAEVKKPGSSVKVSCKASGGTFSSYAISWVRQAPGQGLEWMGGIIPIFGTANYAQKFQGRVTITADKSTSTAYMELSSLRSEDTAVYYCARGYNWNDDYYYYYGMDVWGQGTTVTVSS
VL: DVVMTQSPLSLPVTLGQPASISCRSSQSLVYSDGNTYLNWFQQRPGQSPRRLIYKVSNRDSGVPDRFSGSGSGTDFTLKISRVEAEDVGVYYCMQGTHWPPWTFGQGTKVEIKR
notes: Fab; expressed in E. coli from Plasmid A (CH1, His6 and Flag tags) and Plasmid C (kappa CL)
B12: binds [27].
